Read-outs that look alike come from different tables or passages of the source.
Columns and labels:
[1] = molecular target: T1, IFN-γ (interferon gamma) (UniProt P01579 24-161); assay: graphene-Nafion FET biosensor
[2] = molecular target: T1, IFN-γ (interferon gamma); assay: graphene-Nafion FET biosensor; remark: listed apart in the source

T1 sequence (P01579 24-161): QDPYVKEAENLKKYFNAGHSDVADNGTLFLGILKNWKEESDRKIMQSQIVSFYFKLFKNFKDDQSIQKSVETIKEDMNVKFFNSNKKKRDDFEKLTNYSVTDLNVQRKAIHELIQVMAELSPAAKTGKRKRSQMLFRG

## GGGGTTGTTTGTGTTGGGTGTTGTGT (ssDNA, 5'-NH2) [IFN-γ-specific aptamer]
[1]
  Kd: 4.39 nM
[2]
  Kd: 4.21 nM

Reference: publication PMC13344369
